We go through one molecule from paper PMC11836289, “A humanized NOVA1 splicing factor alters mouse vocal communications”.

One data set addresses T1, NOVA1wt (UniProt Q9JKN6 1-507).
T1 sequence: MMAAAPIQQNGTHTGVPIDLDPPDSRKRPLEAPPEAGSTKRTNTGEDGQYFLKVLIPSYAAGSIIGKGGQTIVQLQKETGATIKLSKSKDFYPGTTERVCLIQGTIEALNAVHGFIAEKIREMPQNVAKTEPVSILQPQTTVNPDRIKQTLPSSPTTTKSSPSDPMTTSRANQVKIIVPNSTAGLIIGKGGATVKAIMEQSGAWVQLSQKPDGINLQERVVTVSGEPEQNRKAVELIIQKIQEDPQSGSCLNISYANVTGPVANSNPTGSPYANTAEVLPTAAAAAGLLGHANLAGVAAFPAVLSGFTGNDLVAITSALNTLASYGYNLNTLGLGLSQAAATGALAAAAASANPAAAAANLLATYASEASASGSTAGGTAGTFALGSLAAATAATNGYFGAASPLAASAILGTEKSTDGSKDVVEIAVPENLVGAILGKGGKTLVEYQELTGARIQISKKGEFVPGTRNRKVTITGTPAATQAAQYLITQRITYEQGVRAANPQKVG
As to the kind of experiment: EMSA; 10 mM HEPES (pH not stated), 3 mM MgCl2, 150 mM NaCl, 5% glycerol, 0.1 mM DTT, 0.1 U/ul RNase OUT, 10 mg/ml yeast tRNA, 1 mg/ml poly dI-dC, 22 C, 60 min; protein 0.5-2 pmol, RNA 0.08 pmol per reaction; 8% native gel. To be noted: protein: recombinant; tags: GST tag (N-term) cleaved by PreScission; pGEX6p1 remnant; label: 32P; hairpin.

Another data set addresses T2, NOVA1hu (humanized) (UniProt Q9JKN6 1-507, I197V).
T2 sequence: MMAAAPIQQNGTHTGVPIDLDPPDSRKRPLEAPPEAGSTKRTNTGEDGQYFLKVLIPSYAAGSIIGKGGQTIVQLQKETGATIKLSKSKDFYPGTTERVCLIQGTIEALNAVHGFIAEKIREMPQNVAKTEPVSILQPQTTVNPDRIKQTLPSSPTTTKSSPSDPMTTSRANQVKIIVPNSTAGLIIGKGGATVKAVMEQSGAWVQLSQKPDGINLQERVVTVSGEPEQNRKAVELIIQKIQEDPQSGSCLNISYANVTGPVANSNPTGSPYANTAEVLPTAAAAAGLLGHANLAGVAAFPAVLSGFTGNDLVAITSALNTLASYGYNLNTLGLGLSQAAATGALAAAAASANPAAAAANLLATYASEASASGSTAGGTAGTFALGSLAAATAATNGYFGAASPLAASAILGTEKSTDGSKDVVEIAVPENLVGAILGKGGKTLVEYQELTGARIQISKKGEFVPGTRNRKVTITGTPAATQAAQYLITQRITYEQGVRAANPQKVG
As to the kind of experiment: EMSA; text prints 105.83 ± 8.3; figure and source data 105.3; 10 mM HEPES (pH not stated), 3 mM MgCl2, 150 mM NaCl, 5% glycerol, 0.1 mM DTT, 0.1 U/ul RNase OUT, 10 mg/ml yeast tRNA, 1 mg/ml poly dI-dC, 22 C, 60 min; protein 0.5-2 pmol, RNA 0.08 pmol per reaction; 8% native gel. To be noted: protein: recombinant; tags: GST tag (N-term) cleaved by PreScission; pGEX6p1 remnant; label: 32P; hairpin.

B1: UCAU RNA probe (stem-loop) (structured_RNA)
RNA: CCUUAUCAUGCUGACUCACGUCAUUUCAUCUCAUCAAGGGAGUCAGUGGGAUA
As for B1, the Kd worked out at 0.105 ± 0.0116 µM with NOVA1wt and 0.105 ± 0.0083 µM in the data set with NOVA1hu (humanized).
